Molecular target: EGFRvIII (UniProt P00533)
Assay: BLI
Conditions: inverted dT at the end, BLI: association 200 s, dissociation 400 s, PBS + 0.05% Tween-20 (stated for NOTA-aptamer dissociation), protein loading at room temperature, cells: DPBS …

Row | Sequence | Kd (P = 2Nap-dU (5-[N-(2-naphthylmethyl)carboxamide]-2'-deoxyuridine), written as T at 5,9,13,18,19,20,25,26,27,35,42, T1 printed as T) | Kd (protein on Ni-NTA probe, 125-500 nM aptamer, PBS 0.05% Tween-20, 2Nap-dU written as T at 5,9,13,18,19,20,25,26,27,35,42, 5'-amine conjugated to p-SCN-Bn-NOTA)
1 | TGAGTAAGTGAGTACCGTTTGCGATTTGGAGAACTACGCAATCA [EGFRvIII aptamer (44 nt)] | 0.87 nM | 
2 | TGAGTAAGTGAGTACCGTTTGCGATTTGGAGAACTACGCAATCA [NOTA-EGFRvIII aptamer] |  | 2.05 nM

Reference: article PMC11207964
